According to article doi:10.1101/2025.11.23.690026, “A systematic interactome of SET1C expands its functional landscape and identifies candidate regulatory connections” (bioRxiv, 2025):

Target: T1, reconstituted SET1C (S. cerevisiae, UniProt P38827 1-1080; P39706 1-426; P36104 1-329; P38123 1-315; P43132 1-505; Q03323 …)
T1 construct: Set1, S. cerevisiae (FLAG-Set1); Swd1, untagged subunit; Swd2, untagged subunit; Swd3, untagged subunit; Bre2, untagged subunit; Sdc1, untagged subunit; Spp1, untagged subunit; Shg1, untagged subunit; also called full-length SET1C; purified SET1C; source: Sf9, coinfected with baculoviruses, purified (M2 agarose); copies: + + + + + + +
Assay: pull-down; GST-tagged Snf2 fragments (250 nM) with SET1C or C762SET1C (25 nM) on glutathione-Sepharose 4B, 0.2 mg/ml BSA, 20 mM Tris-Cl pH 7.9, 150 mM NaCl, 0.1% NP-40, 4 C, 3 hours; immunoblot
Details: both partners purified

B1: GST-Snf2C-AT-hook (domain or fragment, S. cerevisiae, UniProt P22082 1384-1547, looked up)
chain: ARKQRTKKEDKSEAIDGNGEIKGENIDADNDGPRINNISAEDRADTDLAMNDDDFLSKKRKAGRPRGRPKKVKLEGSENSEPPALESSPVTGDNSPSEDFMDIPKPRTAGKTSVKSARTSTRGRGRGRGRGRGRGRGRGRPPKARNGLDYVRTPAAATSPIDIR
notes: Snf2, S. cerevisiae, AT-hook region 1384-1547; also called Snf2-AT-hook; GST-Snf2-AT-hook; source: recombinant, purified GST fusion (E. coli BL21 by the general methods)
B1: binds.
